This test deals with T1, rat TRPV2, C-terminally fused to GFP and a His8-tag (rat), Q9WUD2.
T1 chain: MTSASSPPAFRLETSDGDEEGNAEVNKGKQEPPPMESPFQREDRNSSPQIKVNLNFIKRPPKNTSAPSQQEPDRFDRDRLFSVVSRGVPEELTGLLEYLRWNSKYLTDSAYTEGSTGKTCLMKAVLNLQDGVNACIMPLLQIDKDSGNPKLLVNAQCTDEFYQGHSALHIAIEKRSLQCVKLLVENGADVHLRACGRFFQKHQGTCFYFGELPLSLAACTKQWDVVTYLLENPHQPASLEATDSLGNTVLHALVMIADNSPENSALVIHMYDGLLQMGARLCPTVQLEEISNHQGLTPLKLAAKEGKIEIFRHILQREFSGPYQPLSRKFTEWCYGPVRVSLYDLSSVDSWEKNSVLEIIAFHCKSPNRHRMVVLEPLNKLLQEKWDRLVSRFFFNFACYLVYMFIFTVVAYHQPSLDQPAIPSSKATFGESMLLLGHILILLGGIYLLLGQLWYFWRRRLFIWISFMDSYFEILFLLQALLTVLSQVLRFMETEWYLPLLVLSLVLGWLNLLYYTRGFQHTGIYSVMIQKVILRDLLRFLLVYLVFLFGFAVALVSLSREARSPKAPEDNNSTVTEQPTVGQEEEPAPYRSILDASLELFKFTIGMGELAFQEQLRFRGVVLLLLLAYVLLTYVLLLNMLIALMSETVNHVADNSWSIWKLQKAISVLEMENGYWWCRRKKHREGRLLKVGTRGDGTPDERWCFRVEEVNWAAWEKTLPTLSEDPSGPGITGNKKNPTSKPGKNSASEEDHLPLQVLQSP
Put plainly: cryo-EM structure; purified rat TRPV2 in GDN (20 mM Tris 8.0, 150 mM NaCl, 0.4 mg/ml GDN), incubated with C16 (50 uM) and probenecid (2 mM), alone or in combination, at room temperature for 15 min; C4 symmetry (C16 and probenecid structures), C1 symmetry (C16+probenecid structures). The settings on record: remark: other sources report otherwise.

Experimental findings from publication PMC9722916 are described below.

B1: rat TRPV2, C-terminally fused to GFP and a His8-tag, Q9WUD2 1-761 (natural protein)
chain: MTSASSPPAFRLETSDGDEEGNAEVNKGKQEPPPMESPFQREDRNSSPQIKVNLNFIKRPPKNTSAPSQQEPDRFDRDRLFSVVSRGVPEELTGLLEYLRWNSKYLTDSAYTEGSTGKTCLMKAVLNLQDGVNACIMPLLQIDKDSGNPKLLVNAQCTDEFYQGHSALHIAIEKRSLQCVKLLVENGADVHLRACGRFFQKHQGTCFYFGELPLSLAACTKQWDVVTYLLENPHQPASLEATDSLGNTVLHALVMIADNSPENSALVIHMYDGLLQMGARLCPTVQLEEISNHQGLTPLKLAAKEGKIEIFRHILQREFSGPYQPLSRKFTEWCYGPVRVSLYDLSSVDSWEKNSVLEIIAFHCKSPNRHRMVVLEPLNKLLQEKWDRLVSRFFFNFACYLVYMFIFTVVAYHQPSLDQPAIPSSKATFGESMLLLGHILILLGGIYLLLGQLWYFWRRRLFIWISFMDSYFEILFLLQALLTVLSQVLRFMETEWYLPLLVLSLVLGWLNLLYYTRGFQHTGIYSVMIQKVILRDLLRFLLVYLVFLFGFAVALVSLSREARSPKAPEDNNSTVTEQPTVGQEEEPAPYRSILDASLELFKFTIGMGELAFQEQLRFRGVVLLLLLAYVLLTYVLLLNMLIALMSETVNHVADNSWSIWKLQKAISVLEMENGYWWCRRKKHREGRLLKVGTRGDGTPDERWCFRVEEVNWAAWEKTLPTLSEDPSGPGITGNKKNPTSKPGKNSASEEDHLPLQVLQSP
As a reminder, the stoichiometry N is a count of units in the complex or per binding partner. On to B1, for which the stoichiometry N came to 4.
